Source: patent US9994628B2, “Peptides and combination of peptides for use in immunotherapy against various tumors” (IMMATICS BIOTECHNOLOGIES GMBH, priority 2015, dated 2018)

Target: HLA-A*02:01 (Homo sapiens, UniProt P04439, D140Y/D185E/D98H/E176V/E277Q/G131W/G231S/I119V/I121R/I166T/I218V/L300P/L318F/N151K/N90K/P208A/P217A/Q86G/Q94H/R138H/R169H/T345S)
Assay: MHC binding assay: UV-ligand exchange and β2m ELISA (peptide exchange yield, Table 7)
Conditions: binding of HLA-class I restricted peptides to HLA-A*02:01, UV-ligand exchange
Text: Candidate peptides for T cell based therapies according to the present invention were further tested for their MHC binding capacity (affinity). The individual peptide-MHC complexes were produced by UV-ligand exchange, where a UV-sensitive peptide is cleaved upon UV-irradiation, and exchanged with the peptide of interest as analyzed. Only peptide candidates that can effectively bind and stabilize the peptide-receptive MHC molecules prevent dissociation of the MHC complexes. To determine the yield of the exchange reaction, an ELISA was performed based on the detection of the light chain (β2 m) of stabilized MHC complexes. The assay was performed as generally described in Rodenko et al. (Rodenko et al., 2006).
96 well MAXISorp plates (NUNC) were coated over night with 2 ug/ml streptavidin in PBS at room temperature, washed 4× and blocked for 1 h at 37° C. in 2% BSA containing blocking buffer. Refolded HLA-A*02:01/MLA-001 monomers served as standards, covering the range of 15-500 ng/ml. Peptide-MHC monomers of the UV-exchange reaction were diluted 100 fold in blocking buffer. Samples were incubated for 1 h at 37° C., washed four times, incubated with 2 ug/ml HRP conjugated anti-β2 m for 1 h at 37° C., washed again and detected with TMB solution that is stopped with […]. Absorption was measured at 450 nm. Candidate peptides that show a high exchange yield (preferably higher than 50%, most preferred higher than 75%) are generally preferred for a generation and production of antibodies or fragments thereof, and/or T cell receptors or fragments thereof, as they show sufficient avidity to the MHC molecules and prevent dissociation of the MHC complexes.

Substance | Peptide exchange (MHC class I binding score, peptide exchange yield)
130 (QLYGSAITL; listed as Homo sapiens) [compound 130] | +++ (≥50% = +++)
131 (SLYPHFTLL; listed as Homo sapiens) [compound 131] | +++ (≥50% = +++)
133 (FLDGRPLTL; listed as Homo sapiens) [compound 133] | ++ (≥20% = ++)
136 (LLWDAPAKC; listed as Homo sapiens) [compound 136] | +++ (≥50% = +++)
137 (KLIYKDLVSV; listed as Homo sapiens) [compound 137] | ++ (≥20% = ++)
139 (IILENIQSL; listed as Homo sapiens) [compound 139] | +++ (≥50% = +++)
140 (FLDSQITTV; listed as Homo sapiens) [compound 140] | +++ (≥50% = +++)
141 (NIDINNNEL; listed as Homo sapiens) [compound 141] | ++ (≥20% = ++)
142 (LLDAAHASI; listed as Homo sapiens) [compound 142] | ++ (≥20% = ++)
144 (FLISQTPLL; listed as Homo sapiens) [compound 144] | +++ (≥50% = +++)
146 (VVAAHLAGA; listed as Homo sapiens) [compound 146] | ++ (≥20% = ++)
147 (GLLSALENV; listed as Homo sapiens) [compound 147] | +++ (≥50% = +++)
149 (NMADGQLHQV; listed as Homo sapiens) [compound 149] | ++ (≥20% = ++)
150 (VLLDMVHSL; listed as Homo sapiens) [compound 150] | +++ (≥50% = +++)
151 (DISKRIQSL; listed as Homo sapiens) [compound 151] | ++ (≥20% = ++)
153 (KLVELEHTL; listed as Homo sapiens) [compound 153] | +++ (≥50% = +++)
158 (YLDPLWHQL; listed as Homo sapiens) [compound 158] | +++ (≥50% = +++)
159 (QLGPVPVTI; listed as Homo sapiens) [compound 159] | +++ (≥50% = +++)
160 (TLQEWLTEV; listed as Homo sapiens) [compound 160] | +++ (≥50% = +++)
161 (NLLDENVCL; listed as Homo sapiens) [compound 161] | ++++ (≥75% = ++++)
163 (GLEERLYTA; listed as Homo sapiens) [compound 163] | ++ (≥20% = ++)

Substance | Peptide exchange (MHC class I binding score, peptide exchange yield)
167 (LVVDEGSLVSV; listed as Homo sapiens) [compound 167] | +++ (≥50% = +++)
168 (VIFEGEPMYL; listed as Homo sapiens) [compound 168] | +++ (≥50% = +++)
169 (ALADLSVAV; listed as Homo sapiens) [compound 169] | +++ (≥50% = +++)
171 (LLLLDVPTA; listed as Homo sapiens) [compound 171] | ++ (≥20% = ++)
173 (RLIDIYKNV; listed as Homo sapiens) [compound 173] | +++ (≥50% = +++)
174 (ALYSGDLHAA; listed as Homo sapiens) [compound 174] | ++ (≥20% = ++)
175 (SLLDLVQSL; listed as Homo sapiens) [compound 175] | +++ (≥50% = +++)
177 (ALINVLNAL; listed as Homo sapiens) [compound 177] | +++ (≥50% = +++)
178 (SLVSWQLLL; listed as Homo sapiens) [compound 178] | ++++ (≥75% = ++++)
179 (TLGEIIKGV; listed as Homo sapiens) [compound 179] | +++ (≥50% = +++)
180 (RLYEEEIRI; listed as Homo sapiens) [compound 180] | +++ (≥50% = +++)
183 (ALSYILPYL; listed as Homo sapiens) [compound 183] | +++ (≥50% = +++)
185 (TLYQGLPAEV; listed as Homo sapiens) [compound 185] | ++ (≥20% = ++)
188 (VLGEEQEGV; listed as Homo sapiens) [compound 188] | ++ (≥20% = ++)
190 (SLSTELFKV; listed as Homo sapiens) [compound 190] | +++ (≥50% = +++)
193 (ALFHMNILL; listed as Homo sapiens) [compound 193] | +++ (≥50% = +++)
194 (KLLEEVQLL; listed as Homo sapiens) [compound 194] | ++ (≥20% = ++)
195 (VIIQNLPAL; listed as Homo sapiens) [compound 195] | +++ (≥50% = +++)
198 (ILTNKVVSV; listed as Homo sapiens) [compound 198] | ++ (≥20% = ++)
199 (SVADLAHVL; listed as Homo sapiens) [compound 199] | ++ (≥20% = ++)

Now from value to substance:

Peptide exchange (MHC class I binding score, peptide exchange yield) | Substance
+++ (≥50% = +++) | 132 (ALLNNVIEV; listed as Homo sapiens) [compound 132]
++ (≥20% = ++) | 134 (SLYKSFLQL; listed as Homo sapiens) [compound 134]
++ (≥20% = ++) | 138 (GIINKLVTV; listed as Homo sapiens) [compound 138]
+++ (≥50% = +++) | 143 (MLWESIMRV; listed as Homo sapiens) [compound 143]
+++ (≥50% = +++) | 145 (ALEEKLENV; listed as Homo sapiens) [compound 145]
+++ (≥50% = +++) | 148 (YLILSSHQL; listed as Homo sapiens) [compound 148]
++ (≥20% = ++) | 154 (AIIKEIQTV; listed as Homo sapiens) [compound 154]
++ (≥20% = ++) | 155 (TLDSYLKAV; listed as Homo sapiens) [compound 155]
++ (≥20% = ++) | 157 (ILQDGQFLV; listed as Homo sapiens) [compound 157]
+++ (≥50% = +++) | 162 (GLLGNLLTSL; listed as Homo sapiens) [compound 162]
+++ (≥50% = +++) | 164 (MLIIRVPSV; listed as Homo sapiens) [compound 164]
+++ (≥50% = +++) | 165 (SLLDYEVSI; listed as Homo sapiens) [compound 165]
+++ (≥50% = +++) | 166 (LLGDSSFFL; listed as Homo sapiens) [compound 166]
++ (≥20% = ++) | 170 (FIAAVVEKV; listed as Homo sapiens) [compound 170]
++ (≥20% = ++) | 176 (VQSGLRILL; listed as Homo sapiens) [compound 176]
+++ (≥50% = +++) | 181 (LLWAPTAQA; listed as Homo sapiens) [compound 181]
+++ (≥50% = +++) | 182 (GLQDGFQITV; listed as Homo sapiens) [compound 182]
++ (≥20% = ++) | 184 (ALDSTIAHL; listed as Homo sapiens) [compound 184]
++ (≥20% = ++) | 187 (SILKEDPFL; listed as Homo sapiens) [compound 187]
+++ (≥50% = +++) | 191 (AAIEIFEKV; listed as Homo sapiens) [compound 191]
++ (≥20% = ++) | 192 (TLLPSSGLVTL; listed as Homo sapiens) [compound 192]
